Here are results for 1 protein from patent publication US8053186.

The target in series [1] is All1/Af4 fusion protein (endogenous, SEMK2 cells with t(4;11)), Q03164.
Series [2] deals with All1/Af9 fusion protein (endogenous, PER377 cells with t(9;11)), Q03164.
Sequence of All1/Af9 fusion protein (endogenous, PER377 cells with t(9;11)), Q03164 (Q03164 other isoform, or with tags, fused parts or gaps): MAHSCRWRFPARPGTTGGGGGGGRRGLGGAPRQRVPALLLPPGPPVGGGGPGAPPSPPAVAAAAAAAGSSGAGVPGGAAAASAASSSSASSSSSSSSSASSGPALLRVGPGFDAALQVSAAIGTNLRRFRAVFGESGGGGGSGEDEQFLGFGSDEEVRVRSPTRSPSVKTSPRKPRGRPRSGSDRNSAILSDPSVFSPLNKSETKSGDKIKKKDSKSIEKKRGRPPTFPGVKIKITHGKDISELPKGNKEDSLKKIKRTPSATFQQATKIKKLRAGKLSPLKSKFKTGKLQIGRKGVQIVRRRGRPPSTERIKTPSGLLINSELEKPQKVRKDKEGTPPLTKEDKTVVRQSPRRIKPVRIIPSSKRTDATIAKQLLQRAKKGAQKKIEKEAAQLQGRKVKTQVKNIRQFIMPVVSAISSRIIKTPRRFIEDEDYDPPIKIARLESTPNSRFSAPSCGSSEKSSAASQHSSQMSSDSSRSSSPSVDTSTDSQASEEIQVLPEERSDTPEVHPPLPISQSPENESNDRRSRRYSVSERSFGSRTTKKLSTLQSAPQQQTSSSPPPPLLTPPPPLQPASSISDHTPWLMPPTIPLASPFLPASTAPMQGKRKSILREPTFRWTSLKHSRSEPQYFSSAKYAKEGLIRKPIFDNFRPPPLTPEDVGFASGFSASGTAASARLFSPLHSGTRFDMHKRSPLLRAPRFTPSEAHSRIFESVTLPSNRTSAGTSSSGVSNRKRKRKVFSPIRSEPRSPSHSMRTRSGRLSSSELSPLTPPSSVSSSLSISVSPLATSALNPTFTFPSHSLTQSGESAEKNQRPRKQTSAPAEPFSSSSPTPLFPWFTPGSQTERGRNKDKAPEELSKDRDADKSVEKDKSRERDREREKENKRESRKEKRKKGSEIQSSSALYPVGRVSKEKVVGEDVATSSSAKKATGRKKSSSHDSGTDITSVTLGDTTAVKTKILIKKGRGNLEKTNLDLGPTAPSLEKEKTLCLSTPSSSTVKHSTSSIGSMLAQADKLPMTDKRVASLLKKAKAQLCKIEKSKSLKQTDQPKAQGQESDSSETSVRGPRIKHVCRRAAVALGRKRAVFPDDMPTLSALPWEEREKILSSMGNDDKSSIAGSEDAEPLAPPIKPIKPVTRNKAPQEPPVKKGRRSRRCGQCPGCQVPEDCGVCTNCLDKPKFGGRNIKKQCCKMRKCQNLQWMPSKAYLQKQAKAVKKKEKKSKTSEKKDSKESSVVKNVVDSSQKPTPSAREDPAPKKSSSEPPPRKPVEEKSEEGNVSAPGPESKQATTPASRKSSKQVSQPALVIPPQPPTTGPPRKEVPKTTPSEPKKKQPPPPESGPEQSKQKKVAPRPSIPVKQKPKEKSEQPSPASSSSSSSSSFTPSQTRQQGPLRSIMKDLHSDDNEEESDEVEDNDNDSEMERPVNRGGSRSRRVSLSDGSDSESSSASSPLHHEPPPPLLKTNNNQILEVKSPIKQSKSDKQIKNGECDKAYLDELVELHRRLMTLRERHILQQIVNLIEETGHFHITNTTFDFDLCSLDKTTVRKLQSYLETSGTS

Sequence of All1/Af4 fusion protein (endogenous, SEMK2 cells with t(4;11)), Q03164 (Q03164 other isoform, or with tags, fused parts or gaps): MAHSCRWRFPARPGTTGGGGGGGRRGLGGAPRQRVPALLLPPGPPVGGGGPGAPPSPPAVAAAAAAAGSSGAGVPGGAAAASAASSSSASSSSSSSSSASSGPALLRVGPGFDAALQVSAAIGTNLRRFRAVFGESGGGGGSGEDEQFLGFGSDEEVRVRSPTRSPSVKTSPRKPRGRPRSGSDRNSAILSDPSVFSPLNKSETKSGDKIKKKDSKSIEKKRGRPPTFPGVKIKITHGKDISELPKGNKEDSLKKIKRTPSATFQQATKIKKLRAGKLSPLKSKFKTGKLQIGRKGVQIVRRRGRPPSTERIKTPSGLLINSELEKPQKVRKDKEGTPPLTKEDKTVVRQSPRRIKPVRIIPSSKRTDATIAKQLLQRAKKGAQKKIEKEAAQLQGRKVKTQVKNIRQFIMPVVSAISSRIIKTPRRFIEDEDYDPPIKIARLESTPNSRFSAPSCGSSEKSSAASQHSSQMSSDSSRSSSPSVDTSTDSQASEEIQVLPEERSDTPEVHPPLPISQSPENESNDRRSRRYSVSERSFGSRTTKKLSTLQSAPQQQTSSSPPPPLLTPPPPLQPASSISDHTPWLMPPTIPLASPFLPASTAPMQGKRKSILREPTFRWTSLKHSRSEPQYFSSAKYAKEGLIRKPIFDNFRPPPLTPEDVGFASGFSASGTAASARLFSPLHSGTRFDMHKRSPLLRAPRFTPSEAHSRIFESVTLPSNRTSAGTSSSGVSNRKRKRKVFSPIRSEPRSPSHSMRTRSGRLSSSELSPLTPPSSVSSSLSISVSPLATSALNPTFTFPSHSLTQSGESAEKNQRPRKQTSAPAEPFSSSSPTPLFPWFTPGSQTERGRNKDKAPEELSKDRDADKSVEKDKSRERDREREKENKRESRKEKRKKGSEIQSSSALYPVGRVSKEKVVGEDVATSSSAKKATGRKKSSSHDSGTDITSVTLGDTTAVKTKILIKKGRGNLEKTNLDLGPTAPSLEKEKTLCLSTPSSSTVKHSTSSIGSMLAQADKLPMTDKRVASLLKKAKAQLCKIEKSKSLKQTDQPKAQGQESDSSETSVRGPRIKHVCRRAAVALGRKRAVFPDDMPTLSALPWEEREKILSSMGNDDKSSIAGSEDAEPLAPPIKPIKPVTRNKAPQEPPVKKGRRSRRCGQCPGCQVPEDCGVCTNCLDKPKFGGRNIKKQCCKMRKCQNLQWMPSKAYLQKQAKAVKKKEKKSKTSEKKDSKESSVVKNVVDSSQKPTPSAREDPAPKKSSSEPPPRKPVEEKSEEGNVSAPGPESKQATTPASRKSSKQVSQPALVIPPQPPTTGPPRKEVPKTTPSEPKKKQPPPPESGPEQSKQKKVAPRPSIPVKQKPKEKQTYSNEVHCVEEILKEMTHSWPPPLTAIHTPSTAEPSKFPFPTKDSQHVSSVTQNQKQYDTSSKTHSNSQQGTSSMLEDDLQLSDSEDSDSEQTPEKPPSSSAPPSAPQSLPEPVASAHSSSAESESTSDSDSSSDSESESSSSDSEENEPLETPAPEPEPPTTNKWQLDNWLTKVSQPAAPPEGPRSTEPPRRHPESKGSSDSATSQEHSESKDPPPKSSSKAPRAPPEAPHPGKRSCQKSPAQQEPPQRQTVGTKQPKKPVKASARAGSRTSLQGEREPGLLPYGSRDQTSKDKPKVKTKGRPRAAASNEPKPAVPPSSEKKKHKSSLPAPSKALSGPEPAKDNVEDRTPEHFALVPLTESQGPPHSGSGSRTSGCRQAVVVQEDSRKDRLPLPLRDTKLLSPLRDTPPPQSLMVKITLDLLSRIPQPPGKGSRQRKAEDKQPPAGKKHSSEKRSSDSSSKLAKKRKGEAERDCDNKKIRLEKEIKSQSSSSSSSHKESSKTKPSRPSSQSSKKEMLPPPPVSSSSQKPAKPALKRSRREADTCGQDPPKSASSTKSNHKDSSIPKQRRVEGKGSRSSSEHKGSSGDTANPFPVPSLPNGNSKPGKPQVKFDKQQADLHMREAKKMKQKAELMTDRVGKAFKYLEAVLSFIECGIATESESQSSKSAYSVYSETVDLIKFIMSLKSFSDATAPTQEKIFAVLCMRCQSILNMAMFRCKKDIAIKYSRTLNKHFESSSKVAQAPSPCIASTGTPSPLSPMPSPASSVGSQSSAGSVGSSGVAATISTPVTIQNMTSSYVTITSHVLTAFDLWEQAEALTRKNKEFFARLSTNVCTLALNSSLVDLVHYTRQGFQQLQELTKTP

B1: Drosha (endogenous, immunoprecipitated from SEMK2 or PER377 nuclear extracts) (protein)
chain: MMQGNTCHRMSFHPGRGCPRGRGGHGARPSAPSFRPQNLRLLHPQQPPVQYQYEPPSAPSTTFSNSPAPNFLPPRPDFVPFPPPMPPSAQGPLPPCPIRPPFPNHQMRHPFPVPPCFPPMPPPMPCPNNPPVPGAPPGQGTFPFMMPPPSMPHPPPPPVMPQQVNYQYPPGYSHHNFPPPSFNSFQNNPSSFLPSANNSSSPHFRHLPPYPLPKAPSERRSPERLKHYDDHRHRDHSHGRGERHRSLDRRERGRSPDRRRQDSRYRSDYDRGRTPSRHRSYERSRERERERHRHRDNRRSPSLERSYKKEYKRSGRSYGLSVVPEPAGCTPELPGEIIKNTDSWAPPLEIVNHRSPSREKKRARWEEEKDRWSDNQSSGKDKNYTSIKEKEPEETMPDKNEEEEEELLKPVWIRCTHSENYYSSDPMDQVGDSTVVGTSRLRDLYDKFEEELGSRQEKAKAARPPWEPPKTKLDEDLESSSESECESDEDSTCSSSSDSEVFDVIAEIKRKKAHPDRLHDELWYNDPGQMNDGPLCKCSAKARRTGIRHSIYPGEEAIKPCRPMTNNAGRLFHYRITVSPPTNFLTDRPTVIEYDDHEYIFEGFSMFAHAPLTNIPLCKVIRFNIDYTIHFIEEMMPENFCVKGLELFSLFLFRDILELYDWNLKGPLFEDSPPCCPRFHFMPRFVRFLPDGGKEVLSMHQILLYLLRCSKALVPEEEIANMLQWEELEWQKYAEECKGMIVTNPGTKPSSVRIDQLDREQFNPDVITFPIIVHFGIRPAQLSYAGDPQYQKLWKSYVKLRHLLANSPKVKQTDKQKLAQREEALQKIRQKNTMRREVTVELSSQGFWKTGIRSDVCQHAMMLPVLTHHIRYHQCLMHLDKLIGYTFQDRCLLQLAMTHPSHHLNFGMNPDHARNSLSNCGIRQPKYGDRKVHHMHMRKKGINTLINIMSRLGQDDPTPSRINHNERLEFLGDAVVEFLTSVHLYYLFPSLEEGGLATYRTAIVQNQHLAMLAKKLELDRFMLYAHGPDLCRESDLRHAMANCFEALIGAVYLEGSLEEAKQLFGRLLFNDPDLREVWLNYPLHPLQLQEPNTDRQLIETSPVLQKLTEFEEAIGVIFTHVRLLARAFTLRTVGFNHLTLGHNQRMEFLGDSIMQLVATEYLFIHFPDHHEGHLTLLRSSLVNNRTQAKVAEELGMQEYAITNDKTKRPVALRTKTLADLLESFIAALYIDKDLEYVHTFMNVCFFPRLKEFILNQDWNDPKSQLQQCCLTLRTEGKEPDIPLYKTLQTVGPSHARTYTVAVYFKGERIGCGKGPSIQQAEMGAAMDALEKYNFPQMAHQKRFIERKYRQELKEMRWEREHQEREPDETEDIKK
For B1, the “in vitro cleavage of miR-191 and miR-155 probes by immuno-purified Drosha” value in series [1] is “Drosha containing All1/Af4 exhibited the strongest processing activity”; in series [2] it was “Drosha containing All1/Af9 had less processing activity, similar to that of the Drosha:FLAG preparation”.
